In the supplement of paper PMC7877785:
± gives the uncertainty stated by the source.

Assay: self-splicing fitness, log relative to wild type (ln ratio); higher = more splicing; Tetrahymena group I intron in knt gene, E. coli kanamycin selection, DiMSum; sequences stand for … in CUCUCU…GGAGGGAAAAGUUAUCAGGCAUGCACCUGGUAGCUAGUCUUUAAACCAAUAGAUUGCAUCGGUUUAAAAGGCAAGACCGUCAAAUUGCGGGAAAGGGGUCAACAGCCGUUCAGUACCAAGUCUCAGGGGAAACUUUGAGAUGGCCUUGCAAAGGGUAUGGUAAUAAGCUGACGGACAUGGUCCUAACCACGCAGCCAAGUCCUAAGUCAACAGAUCUUCUGUUGAUAUGGAUGCAGUUCACAGACUAAAUGUCGGUCGGGGAAGAUGUAUUCUUCUCAUAAGAUAUAGUCGGACCUCUCCUUAAUGGGAGCUAGCGGAUGAAGUGAUGCAACACUGGAGCCGCUGGGAACUAAUUUGUAUGCGAAAGUAUAUUGAUUAGUUUUGGAGUACUCGUGGUCG
Method in brief: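 Six replicate transformations of E. coli BL21(DE3) with a pET-22b(+) library were grown overnight at 37°C or 30°C. The library randomised all eight P1ex-region intron nucleotides, the intron lying in the knt kanamycin-resistance gene, and plates were LB agar with or without 25 μg/mL kanamycin plus 100 μg/mL carbenicillin, 50 μM IPTG and 0.2% rhamnose. Pooled colonies were amplicon-sequenced on an Illumina HiSeq 2500, and fitness is the DiMSum error-weighted combination of wild-type-normalised replicate fold changes, kanamycin versus none.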

Sequence | self-splicing fitness (ln) (30 °C) | self-splicing fitness (ln) (37 °C)
UAGUAGCAAUAUUACGCUAA | -2.12 ± 0.28 | -1.3 ± 0.15
CAGGAGCAAUAUUACGAUUC |  | -1.93 ± 0.38
CGGGAGCAAUAUUACGUAAA | -2.94 ± 0.34 | 
ACACAGCAAUAUUACGCGAC | -2.72 ± 0.098 | -2.15 ± 0.11
ACCGAGCAAUAUUACGGCAA | -1.19 ± 0.12 | -1.48 ± 0.12
GUACAGCAAUAUUACGGUCA | -0.796 ± 0.068 | -0.618 ± 0.082
UUCUAGCAAUAUUACGUCGC | -3.18 ± 0.44 | 
UAUAAGCAAUAUUACGGACC | -2.68 ± 0.16 | -2.07 ± 0.22
CACGAGCAAUAUUACGAACU |  | -1.72 ± 0.38
AAGGAGCAAUAUUACGUGAU | -2.78 ± 0.18 | -2.45 ± 0.3
UGCGAGCAAUAUUACGGAUU |  | -3.08 ± 0.4
GGCCAGCAAUAUUACGAUCU | -0.383 ± 0.06 | -0.133 ± 0.078
GUCCAGCAAUAUUACGCGAC | -3.04 ± 0.19 | -2.86 ± 0.21
GCAGAGCAAUAUUACGUACU | -3.98 ± 0.3 | -2.29 ± 0.32
ACACAGCAAUAUUACGGAAG | -3.07 ± 0.14 | -1.12 ± 0.11
CGUCAGCAAUAUUACGCAUC | -2.47 ± 0.4 | -2.89 ± 0.4
CAGCAGCAAUAUUACGCAGU | -3.81 ± 0.18 | -3.35 ± 0.22
UAGAAGCAAUAUUACGAAAU | -3.48 ± 0.24 | -1.95 ± 0.21

Sequence | self-splicing fitness (ln) (30 °C) | self-splicing fitness (ln) (37 °C)
GGCAAGCAAUAUUACGUCAC | -3.31 ± 0.22 | -0.36 ± 0.17
AAGUAGCAAUAUUACGGCUU | -1.4 ± 0.12 | -0.634 ± 0.14
CUGGAGCAAUAUUACGUGUU | -3.3 ± 0.16 | -3.31 ± 0.21
UGGCAGCAAUAUUACGGUUG | -1.46 ± 0.07 | -1.04 ± 0.082
UCUUAGCAAUAUUACGCUAA | -2.71 ± 0.35 | 
ACAGAGCAAUAUUACGAUCA | -3.4 ± 0.28 | 
CACCAGCAAUAUUACGCAGU | -3.61 ± 0.19 | -2.09 ± 0.23
AGUGAGCAAUAUUACGGGGC |  | -2.75 ± 0.29
UUUUAGCAAUAUUACGGAAA | -1.73 ± 0.23 | -1.14 ± 0.34
CCAAAGCAAUAUUACGUACG | -0.00591 ± 0.081 | 0.0861 ± 0.084
GAGGAGCAAUAUUACGUAGC | -0.914 ± 0.2 | -1.02 ± 0.37
AAAGAGCAAUAUUACGUGAC | -4.21 ± 0.21 | -2.62 ± 0.2
GCAAAGCAAUAUUACGGCUC | -0.596 ± 0.062 | 0.305 ± 0.081
CAGAAGCAAUAUUACGUGGA | -2.71 ± 0.18 | -3.1 ± 0.2
AAUCAGCAAUAUUACGACUU | 0.234 ± 0.068 | 0.142 ± 0.083
AUCGAGCAAUAUUACGCCAC |  | -2.54 ± 0.45
ACGAAGCAAUAUUACGACGC | -0.651 ± 0.18 | -0.221 ± 0.16
GAACAGCAAUAUUACGAUCA | -0.605 ± 0.089 | -0.214 ± 0.11
